± gives the uncertainty stated by the source.
B1: KAT8 regulatory NSL complex subunit 2, residues 28 to 91; numbered along this chain, Q9H9L4 (parent)
chain: CAFTHRPCSHPRLEGQEFCIKHILEDKNAPFKQCSYISTKNGKRCPNAAPKPEKKDGVSFCAEH

Variants of: B1
Test: abundance fitness (aPCA) (normalised: wild type 0, dead -1); higher = more abundant; growth selection in yeast, the domain comes from the species named
Settings: Homo sapiens
CAFTHFPCSHPRLEGQEFCIKHILEDKNAPFKQCSYISTKNGKRCPNAAPKPEKKDGVSFCAEH [R6F] gave an abundance fitness of -0.016 ± 0.076. With CAFTHKPCSHPRLEGQEFCIKHILEDKNAPFKQCSYISTKNGKRCPNAAPKPEKKDGVSFCAEH [R6K] the abundance fitness was -0.032 ± 0.11. CAFTHVPCSHPRLEGQEFCIKHILEDKNAPFKQCSYISTKNGKRCPNAAPKPEKKDGVSFCAEH [R6V] showed an abundance fitness of -0.081 ± 0.058. With CAFTHCPCSHPRLEGQEFCIKHILEDKNAPFKQCSYISTKNGKRCPNAAPKPEKKDGVSFCAEH [R6C] the abundance fitness was -0.032 ± 0.066. Variant CAFTHGPCSHPRLEGQEFCIKHILEDKNAPFKQCSYISTKNGKRCPNAAPKPEKKDGVSFCAEH [R6G] has an abundance fitness of -0.068 ± 0.055. Work on CAFTHPPCSHPRLEGQEFCIKHILEDKNAPFKQCSYISTKNGKRCPNAAPKPEKKDGVSFCAEH [R6P] yielded an abundance fitness of -0.047 ± 0.069. In the case of CAFTHSPCSHPRLEGQEFCIKHILEDKNAPFKQCSYISTKNGKRCPNAAPKPEKKDGVSFCAEH [R6S], the abundance fitness is reported as -0.055 ± 0.057. Work on CAFTHIPCSHPRLEGQEFCIKHILEDKNAPFKQCSYISTKNGKRCPNAAPKPEKKDGVSFCAEH [R6I] yielded an abundance fitness of -0.034 ± 0.079. With CAFTHQPCSHPRLEGQEFCIKHILEDKNAPFKQCSYISTKNGKRCPNAAPKPEKKDGVSFCAEH [R6Q] the abundance fitness was -0.072 ± 0.073. In the case of CAFTHWPCSHPRLEGQEFCIKHILEDKNAPFKQCSYISTKNGKRCPNAAPKPEKKDGVSFCAEH [R6W], the abundance fitness is reported as -0.118 ± 0.064. For CAFTHYPCSHPRLEGQEFCIKHILEDKNAPFKQCSYISTKNGKRCPNAAPKPEKKDGVSFCAEH [R6Y], the abundance fitness was -0.06 ± 0.09. CAFTHTPCSHPRLEGQEFCIKHILEDKNAPFKQCSYISTKNGKRCPNAAPKPEKKDGVSFCAEH [R6T] gave an abundance fitness of -0.088 ± 0.066. In the case of CAFTHAPCSHPRLEGQEFCIKHILEDKNAPFKQCSYISTKNGKRCPNAAPKPEKKDGVSFCAEH [R6A], the abundance fitness is reported as -0.167 ± 0.073. In the case of CAFTHNPCSHPRLEGQEFCIKHILEDKNAPFKQCSYISTKNGKRCPNAAPKPEKKDGVSFCAEH [R6N], the abundance fitness is reported as -0.133 ± 0.068. For CADTHRPCSHPRLEGQEFCIKHILEDKNAPFKQCSYISTKNGKRCPNAAPKPEKKDGVSFCAEH [F3D], the abundance fitness was -0.255 ± 0.075. CAETHRPCSHPRLEGQEFCIKHILEDKNAPFKQCSYISTKNGKRCPNAAPKPEKKDGVSFCAEH [F3E] gave an abundance fitness of -0.285 ± 0.085. Work on CAATHRPCSHPRLEGQEFCIKHILEDKNAPFKQCSYISTKNGKRCPNAAPKPEKKDGVSFCAEH [F3A] yielded an abundance fitness of -0.318 ± 0.087. For CAPTHRPCSHPRLEGQEFCIKHILEDKNAPFKQCSYISTKNGKRCPNAAPKPEKKDGVSFCAEH [F3P], the abundance fitness was -0.639 ± 0.074. With CARTHRPCSHPRLEGQEFCIKHILEDKNAPFKQCSYISTKNGKRCPNAAPKPEKKDGVSFCAEH [F3R] the abundance fitness was -0.174 ± 0.044. Work on CAMTHRPCSHPRLEGQEFCIKHILEDKNAPFKQCSYISTKNGKRCPNAAPKPEKKDGVSFCAEH [F3M] yielded an abundance fitness of -0.172 ± 0.085. In the case of CATTHRPCSHPRLEGQEFCIKHILEDKNAPFKQCSYISTKNGKRCPNAAPKPEKKDGVSFCAEH [F3T], the abundance fitness is reported as -0.083 ± 0.068. In the case of CACTHRPCSHPRLEGQEFCIKHILEDKNAPFKQCSYISTKNGKRCPNAAPKPEKKDGVSFCAEH [F3C], the abundance fitness is reported as -0.14 ± 0.077. For CAKTHRPCSHPRLEGQEFCIKHILEDKNAPFKQCSYISTKNGKRCPNAAPKPEKKDGVSFCAEH [F3K], the abundance fitness was -0.287 ± 0.15. For CAGTHRPCSHPRLEGQEFCIKHILEDKNAPFKQCSYISTKNGKRCPNAAPKPEKKDGVSFCAEH [F3G], the abundance fitness was -0.154 ± 0.064. For CALTHRPCSHPRLEGQEFCIKHILEDKNAPFKQCSYISTKNGKRCPNAAPKPEKKDGVSFCAEH [F3L], the abundance fitness was -0.332 ± 0.049. In the case of CAYTHRPCSHPRLEGQEFCIKHILEDKNAPFKQCSYISTKNGKRCPNAAPKPEKKDGVSFCAEH [F3Y], the abundance fitness is reported as -0.151 ± 0.057. In the case of CAWTHRPCSHPRLEGQEFCIKHILEDKNAPFKQCSYISTKNGKRCPNAAPKPEKKDGVSFCAEH [F3W], the abundance fitness is reported as -0.161 ± 0.061. CAHTHRPCSHPRLEGQEFCIKHILEDKNAPFKQCSYISTKNGKRCPNAAPKPEKKDGVSFCAEH [F3H] showed an abundance fitness of -0.026 ± 0.086. Work on CANTHRPCSHPRLEGQEFCIKHILEDKNAPFKQCSYISTKNGKRCPNAAPKPEKKDGVSFCAEH [F3N] yielded an abundance fitness of -0.312 ± 0.1. For CAITHRPCSHPRLEGQEFCIKHILEDKNAPFKQCSYISTKNGKRCPNAAPKPEKKDGVSFCAEH [F3I], the abundance fitness was 0.033 ± 0.13. With CAQTHRPCSHPRLEGQEFCIKHILEDKNAPFKQCSYISTKNGKRCPNAAPKPEKKDGVSFCAEH [F3Q] the abundance fitness was -0.28 ± 0.055. With CAFTHRACSHPRLEGQEFCIKHILEDKNAPFKQCSYISTKNGKRCPNAAPKPEKKDGVSFCAEH [P7A] the abundance fitness was -0.061 ± 0.076. Variant CAFTHRGCSHPRLEGQEFCIKHILEDKNAPFKQCSYISTKNGKRCPNAAPKPEKKDGVSFCAEH [P7G] has an abundance fitness of -0.063 ± 0.091. CAFTHRDCSHPRLEGQEFCIKHILEDKNAPFKQCSYISTKNGKRCPNAAPKPEKKDGVSFCAEH [P7D] showed an abundance fitness of 0.003 ± 0.1. For CAFTHRKCSHPRLEGQEFCIKHILEDKNAPFKQCSYISTKNGKRCPNAAPKPEKKDGVSFCAEH [P7K], the abundance fitness was -0.123 ± 0.073. With CAFTHRCCSHPRLEGQEFCIKHILEDKNAPFKQCSYISTKNGKRCPNAAPKPEKKDGVSFCAEH [P7C] the abundance fitness was -0.201 ± 0.091. CAFTHRLCSHPRLEGQEFCIKHILEDKNAPFKQCSYISTKNGKRCPNAAPKPEKKDGVSFCAEH [P7L] gave an abundance fitness of -0.101 ± 0.046. For CAFTHRFCSHPRLEGQEFCIKHILEDKNAPFKQCSYISTKNGKRCPNAAPKPEKKDGVSFCAEH [P7F], the abundance fitness was -0.121 ± 0.12. With CAFTHRMCSHPRLEGQEFCIKHILEDKNAPFKQCSYISTKNGKRCPNAAPKPEKKDGVSFCAEH [P7M] the abundance fitness was -0.05 ± 0.067. For CAFTHRHCSHPRLEGQEFCIKHILEDKNAPFKQCSYISTKNGKRCPNAAPKPEKKDGVSFCAEH [P7H], the abundance fitness was -0.133 ± 0.14. In the case of CAFTHRICSHPRLEGQEFCIKHILEDKNAPFKQCSYISTKNGKRCPNAAPKPEKKDGVSFCAEH [P7I], the abundance fitness is reported as -0.096 ± 0.081. For CAFTHRECSHPRLEGQEFCIKHILEDKNAPFKQCSYISTKNGKRCPNAAPKPEKKDGVSFCAEH [P7E], the abundance fitness was -0.063 ± 0.078.

From the Human Domainome abundance scans (Beltran et al. 2025)
